Source: the supplement of paper PMC10567573
± gives the standard deviation.

Experiment: protein stability index of a GFP-peptide fusion (GPS, HEK-293T) (PSI 1-6); higher = more stable
Conditions: c terminus: a fixed tail appended
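Also: 24-mer peptide tiles fused after GFP, lentivirally expressed, FACS-sorted into six equal bins by GFP/DsRed ratio, decoded by Illumina sequencing, PSI is the read-weighted mean bin number.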

Row | Sequence | protein stability index (treatment: DMSO) | protein stability index (treatment: MLN4924 1 uM, 8 h)
1 | LLESLNQQRLQGQLCDVSIRVQGR [ZBTB22] | 2.59 ± 0.21 | 2.67 ± 0.21
2 | CLVFELLSYNLYDLLRNTHFRGVS [DYRK1B] | 2.95 ± 0.3 | 3.3 ± 0.16
3 | QVYKETRLFLDGEEEKEWAFEESK [AASDHPPT] | 4.56 ± 0.26 | 4.74 ± 0.15
4 | EGNLAETENRYCVQLSQIQGLIGS [KRT17] | 3.63 ± 0.15 | 3.94 ± 0.12
5 | TGACGEAMAAAEGSSGPAGLTLGR [SEPHS2] | 3.78 ± 0.082 | 3.87 ± 0.055
6 | PTEQVNELVALIPHSDQRLRPQRT [TMEM106C] | 4.63 ± 0.12 | 4.75 ± 0.1
7 | PEAISPDLVKKIRDFHRKILTLPE [TRIM15] | 2.51 ± 0.17 | 2.68 ± 0.37
8 | LPQVAEEISGPLTSANKITLVSSG [FLOT1] | 3.78 ± 0.23 | 4.23 ± 0.21
9 | EEEDEILPRKDYESLDYDRCINDP [CLCN6] | 5.52 ± 0.17 | 5.48 ± 0.29
10 | IYKKYALQSAAGKDAAKQIAWIKD [PDS5B] | 2.03 ± 0.3 | 2.61 ± 0.44
11 | AVTPAGVVNKYQINGLQAWLLTHL [DHCR7] | 2.19 ± 0.23 | 2.15 ± 0.16
12 | LSTSSSPSGTPTNLRRHVPDLESG [DLC1] | 4.65 ± 0.26 | 4.7 ± 0.21
13 | TVKMLRTQRPAMVQTEDQYQFSYR [PTPRD] | 2.84 ± 0.37 | 2.97 ± 0.33
14 | EKVKKRPGGRPEVIYNYVQRPFIR [BTBD10] | 2.9 ± 0.31 | 2.73 ± 0.63
15 | FSVVRRCMKIPTGQEYAAKIINTK [CAMK2D] | 2.3 ± 0.1 | 2.31 ± 0.36
16 | SYLLKSGADKEILTTKGEMPVQLT [ANKRD40] | 3.46 ± 0.38 | 3.55 ± 0.19
17 | RYVFEAVIRWIAHDTEIRKVHMKD [GAN] | 2.74 ± 0.84 | 2.4 ± 0.65
18 | DRVLQWERIDCQGIPPSSKDKLGV [KLHDC2] | 4.14 ± 0.36 | 3.99 ± 0.07
19 | VDSKPELQRVLEHRRRNQLIKKKK [FAM107A] | 4.54 ± 0.2 | 4.61 ± 0.39
20 | TSASLLNAGLSHTEYQIVTDPGDV [SLC2A12] | 4.42 ± 0.16 | 4.76 ± 0.15
21 | SALAPSVFKQAKDKVSDGVTKSPE [MAP2] | 5.44 ± 0.22 | 5.44 ± 0.18
22 | GFFDFETFDVDEYEHYERVENGDF [CDC14A] | 4.14 ± 0.51 | 4.49 ± 0.52

Row | Sequence | protein stability index (treatment: DMSO) | protein stability index (treatment: MLN4924 1 uM, 8 h)
23 | VRDSDDNSPLHIAALNNHPDIMNL [FEM1C] | 4.26 ± 0.24 | 4.42 ± 0.2
24 | TRKQAAKKVAPLMAKAIRDYKGRF [ELOA2] | 3.25 ± 0.37 | 3.39 ± 0.36
25 | NAGQSDNRSLAEACSEGDVNAVRK [ANKRD17] | 5.56 ± 0.15 | 5.46 ± 0.15
26 | QPPQSQAQVPPAAPHHHHHHSHSG [PLK2] | 4.71 ± 0.2 | 4.64 ± 0.13
27 | RVMKVEDREGPSSSKLVTKKAPQP [HDAC6] | 4.93 ± 0.26 | 5.14 ± 0.077
28 | FGPGQTLLSSVHVLDLEARGYIKP [ALKBH7] | 2.43 ± 0.24 | 2.67 ± 0.3
29 | PALDWDSVHVPGPHAMTIQELVDY [PTPN9] | 4.08 ± 0.2 | 4.31 ± 0.15
30 | GGGEGHQPAGNRRGQARRLAPNFR [BEX3] | 4.93 ± 0.17 | 4.92 ± 0.26
31 | KAKQEKVSAQYLSEIEMAKAQRDY [FLOT1] | 4.54 ± 0.12 | 4.64 ± 0.18
32 | EYDTVTREVKVLLDQLRFPNGVQL [APMAP] | 2.01 ± 0.42 | 2.22 ± 0.39
33 | TSPALLQGTAEEDHVDLSLSCTLV [CDKN1A] | 3.85 ± 0.13 | 3.85 ± 0.18
34 | RNARIVHLVEETRIHVLPSLNPDG [CPXM2] | 2.97 ± 0.037 | 3.2 ± 0.24
35 | FYSAEIICAIEYLHSKEIVYRDLK [PRKX] | 2.96 ± 0.76 | 2.51 ± 0.45
36 | AGEGRLGHKRKQPLPKRVAKVPRP [FOXJ1] | 4.53 ± 0.45 | 4.36 ± 0.43
37 | KTDFGSCLLQPPSCPNGMSAENGL [DLC1] | 3.94 ± 0.14 | 3.87 ± 0.19
38 | PLQNQKILKRTGQRYEHGRTLKSY [ZNF649] | 2.89 ± 0.45 | 3.53 ± 0.41
39 | NESRRQIQSLTCEVDGLRGTNEAL [PRPH] | 4.7 ± 0.29 | 5.11 ± 0.056
40 | THRLKDGSTMLIEAAKGGHTSVVC [ANKRD17] | 2.51 ± 0.33 | 2.56 ± 0.33
41 | TIGNLVPQKTYSVKVLAFTSIGDG [PTPRD] | 2.39 ± 0.16 | 2 ± 0.33
42 | SCRRKQEDDRDGLLAEREQEEAIA [TMEM106C] | 5.45 ± 0.33 | 5.42 ± 0.091
43 | EAQEEFLRVLGSMCQRLRSMQYNG [DFFB] | 2.27 ± 0.21 | 2.27 ± 0.21
44 | FIGLEVVAQLFNCMVGLLLIALLT [ATL3] | 3.08 ± 0.3 | 3.39 ± 0.28
